Measurements as given in PMC4491210.

Assays:
Cys = conditions: cited from earlier work
Cys89 = Cys89 (UniProt position 89, FGRNGCSYCER); experiment: UV-vis; conditions: 25 °C; 200 mM NaCl; 10 mM Tris, 10 mM sodium citrate, 1 mM EDTA; Reduced protein referenced to oxidized protein; about 20 µM protein
Cys92 = Cys92 (UniProt position 92, NGCSYCERFKK); experiment: UV-vis; conditions: 25 °C; 200 mM NaCl; 10 mM Tris, 10 mM sodium citrate, 1 mM EDTA; Reduced protein referenced to oxidized protein; about 20 µM protein
[1] = molecular target: HP0377 lacking its own signal sequence (residues 25-221 of native HP0377) with a C-terminal 6 His tag (Helicobacter pylori 26695); experiment: SEC; Superdex75 HiLoad 16/600, 20 mM Tris pH 8, 150 mM NaCl, absorbance at 280 nm, calibrated with Bio-Rad Gel Filtration Standard; monomer and dimer peaks
[2] = molecular target: HP0377 lacking its own signal sequence (residues 25-221 of native HP0377) with a C-terminal 6 His tag (Helicobacter pylori 26695); experiment: cross-linking; glutaraldehyde 0.001-0.1 % v/v, HP0377 2.5 mg/ml, room temperature, 20 min, 0.05 M bicine-NaOH pH 8.5, 0.1 mM DTT, 0.4 M NaCl, quenched with ethanolamine-HCl; SDS-PAGE; monomer to dimer

| Substance | pKa (Cys) | also measured |
| --- | --- | --- |
| CcmG (DsbE) (Escherichia coli) | 6.8 |  |
| DsbA (Escherichia coli) | 3.5 |  |
| DsbC (Escherichia coli) | 4.1 ± 0.3 |  |
| HP0377 (CcmG/DsbE/ResA-like thiol:disulfide oxidoreductase) (Helicobacter pylori 26695) |  | pKa (Cys89): 3.56 ± 0.11; pKa (Cys92): 9.23 ± 0.21 |
| HP0377 lacking its own signal sequence (residues 25-221 of native HP0377) with a C-terminal 6 His tag (domain or fragment) |  | stoichiometry N [1]: 2; stoichiometry N [2]: 2 |
| ResA (Bacillus subtilis) | 8.8 |  |
